Results: article PMC12455602

Legend:
[1] = target: SscR^Ac (RSS-sensitive transcription factor in copper stress response), MarR family transcriptional regulator of Acidithiobacillus caldus (Acidithiobacillus caldus); assay: SEC
[2] = target: SscR^Ac after H2Sn treatment (persulfidated SscR^Ac) (Acidithiobacillus caldus); assay: SEC

| Substance | stoichiometry N [1] | stoichiometry N [2] |
| --- | --- | --- |
| SscR^Ac (RSS-sensitive transcription factor in copper stress response), MarR family transcriptional regulator of Acidithiobacillus caldus (natural protein) | 4 |  |
| SscR^Ac after H2Sn treatment (persulfidated SscR^Ac) (natural protein) |  | 4 |
